Assay results taken from patent US20230140293A1.

Tests used:
Assay in all cases: cell-based or functional assay
[1] = molecular target: HIV-1 426c.DM (N460D/N463D) Env on Env-pseudotyped virus produced in 293T cells (HIV-1)
[2] = molecular target: CH0505TF.gly3.461 Env, Env-pseudotyped virus produced in 293S GnTI- cells (Man5-enriched) (HIV-1)
[3] = molecular target: HIV-1 Env 426c.SM (N276D), Env-pseudotyped virus produced in 293T cells (HIV-1 clade C strain 426c)
[4] = molecular target: HIV-1 Env 426c.TM (N276D.N460D.N463D), Env-pseudotyped virus produced in 293S GnTI- cells (Man5-enriched) (HIV-1 clade C strain 426c)
[5] = molecular target: CH0505.w4.3 Env, Env-pseudotyped virus produced in 293T cells (HIV-1)
[6] = molecular target: CH0505TF.gly3.276 Env, Env-pseudotyped virus produced in 293S GnTI- cells (Man5-enriched) (HIV-1)
[7] = molecular target: CH0505TF.G458Y Env, Env-pseudotyped virus produced in 293T cells (HIV-1)
[8] = molecular target: HIV-1 Env 426c, Env-pseudotyped virus produced in 293T cells (HIV-1 clade C strain 426c)
[9] = molecular target: CH0505TF.gly3.276 Env, Env-pseudotyped virus produced in 293T cells (HIV-1)
[10] = molecular target: HIV-1 Env 426c.TM (N276D.N460D.N463D), Env-pseudotyped virus produced in 293T cells (HIV-1 clade C strain 426c)
[11] = molecular target: HIV-1 clade C strain 426c Env on Env-pseudotyped virus produced in 293s/GnTI-/- cells (Man5-enrichment) (HIV-1)
[12] = molecular target: HIV-1 Env 426c, Env-pseudotyped virus produced in 293S GnTI- cells (Man5-enriched) (HIV-1 clade C strain 426c)
[13] = molecular target: CH0505TF Env, Env-pseudotyped virus produced in 293S GnTI- cells (Man5-enriched) (HIV-1)
[14] = molecular target: HIV-1 426c.SM (N276D) Env on Env-pseudotyped virus produced in 293T cells (HIV-1)
[15] = molecular target: CH0505TF.G458Y Env, Env-pseudotyped virus produced in 293S GnTI- cells (Man5-enriched) (HIV-1)
[16] = molecular target: CH0505TF Env, Env-pseudotyped virus produced in 293T cells (HIV-1)
[17] = molecular target: CH0505TF.gly4 Env, Env-pseudotyped virus produced in 293T cells (HIV-1)
[18] = molecular target: HIV-1 Env 426c.TM4 (S278R.G471S.N460D.N463D), Env-pseudotyped virus produced in 293T cells (HIV-1 clade C strain 426c)
[19] = molecular target: HIV-1 426c.DM (N460D/N463D) Env on Env-pseudotyped virus produced in 293s/GnTI-/- cells (Man5-enrichment) (HIV-1)
[20] = molecular target: HIV-1 Env 426c.DM (N460D.N463D), Env-pseudotyped virus produced in 293S GnTI- cells (Man5-enriched) (HIV-1 clade C strain 426c)
[21] = molecular target: HIV-1 426c.TM (N276D/N460D/N463D) Env on Env-pseudotyped virus produced in 293s/GnTI-/- cells (Man5-enrichment) (HIV-1)
[22] = molecular target: CH0505TF.gly3.197 Env, Env-pseudotyped virus produced in 293T cells (HIV-1)
[23] = molecular target: HIV-1 Env 426c.TM4 (S278R.G471S.N460D.N463D), Env-pseudotyped virus produced in 293S GnTI- cells (Man5-enriched) (HIV-1 clade C strain 426c)
[24] = molecular target: HIV-1 Env 426c.SM (N276D), Env-pseudotyped virus produced in 293S GnTI- cells (Man5-enriched) (HIV-1 clade C strain 426c)
[25] = molecular target: CH0505TF.gly3.461 Env, Env-pseudotyped virus produced in 293T cells (HIV-1)
[26] = molecular target: HIV-1 Env 426c.DM (N460D.N463D), Env-pseudotyped virus produced in 293T cells (HIV-1 clade C strain 426c)
[27] = molecular target: HIV-1 426c.SM (N276D) Env on Env-pseudotyped virus produced in 293s/GnTI-/- cells (Man5-enrichment) (HIV-1)
[28] = molecular target: HIV-1 clade C strain 426c Env on Env-pseudotyped virus produced in 293T cells (HIV-1)
[29] = molecular target: CH0505TF.gly4 Env, Env-pseudotyped virus produced in 293S GnTI- cells (Man5-enriched) (HIV-1)
[30] = molecular target: HIV-1 426c.TM (N276D/N460D/N463D) Env on Env-pseudotyped virus produced in 293T cells (HIV-1)
[31] = molecular target: CH0505TF.gly3.197 Env, Env-pseudotyped virus produced in 293S GnTI- cells (Man5-enriched) (HIV-1)

Substance | ID50/IC50 in TZM-bl [1] [µg/mL] | IC50 (µg/ml) in TZM-bl [2] [µg/mL] | IC50 (µg/ml) in TZM-bl [3] [µg/mL] | IC50 (µg/ml) in TZM-bl [4] [µg/mL] | IC50 (µg/ml) in TZM-bl [5] [µg/mL] | IC50 (µg/ml) in TZM-bl [6] [µg/mL] | IC50 (µg/ml) in TZM-bl [7] [µg/mL] | IC50 (µg/ml) in TZM-bl [8] [µg/mL] | IC50 (µg/ml) in TZM-bl [9] [µg/mL] | IC50 (µg/ml) in TZM-bl [10] [µg/mL] | ID50/IC50 in TZM-bl [11] [µg/mL] | IC50 (µg/ml) in TZM-bl [12] [µg/mL] | IC50 (µg/ml) in TZM-bl [13] [µg/mL] | ID50/IC50 in TZM-bl [14] [µg/mL] | IC50 (µg/ml) in TZM-bl [15] [µg/mL] | IC50 (µg/ml) in TZM-bl [16] [µg/mL] | IC50 (µg/ml) in TZM-bl [17] [µg/mL] | IC50 (µg/ml) in TZM-bl [18] [µg/mL] | ID50/IC50 in TZM-bl [19] [µg/mL] | IC50 (µg/ml) in TZM-bl [20] [µg/mL] | other results
3074 (antibody) | > 25 | 10.2 | > 25 | > 25 | 0.02 | 4.8 | 9.4 | > 25 | 14.1 | > 25 | > 25 | > 25 | > 25 | > 25 | > 25 | > 25 | 7.2 | > 25 | > 25 | > 25 | ID50/IC50 in TZM-bl [21]: > 25 µg/mL; IC50 (µg/ml) in TZM-bl [22]: > 25 µg/mL; IC50 (µg/ml) in TZM-bl [23]: > 25 µg/mL; IC50 (µg/ml) in TZM-bl [24]: 23 µg/mL; IC50 (µg/ml) in TZM-bl [25]: 7.3 µg/mL; IC50 (µg/ml) in TZM-bl [26]: > 25 µg/mL; ID50/IC50 in TZM-bl [27]: 23 µg/mL; ID50/IC50 in TZM-bl [28]: > 25 µg/mL; IC50 (µg/ml) in TZM-bl [29]: 5.6 µg/mL; ID50/IC50 in TZM-bl [30]: > 25 µg/mL; IC50 (µg/ml) in TZM-bl [31]: > 25 µg/mL
3869 (antibody) | > 25 | > 25 | > 25 | > 25 | 3.1 | > 25 | > 25 | > 25 | > 25 | > 25 | > 25 | > 25 | > 25 | > 25 | > 25 | > 25 | > 25 | > 25 | > 25 | > 25 | ID50/IC50 in TZM-bl [21]: > 25 µg/mL; IC50 (µg/ml) in TZM-bl [22]: > 25 µg/mL; IC50 (µg/ml) in TZM-bl [23]: > 25 µg/mL; IC50 (µg/ml) in TZM-bl [24]: > 25 µg/mL; IC50 (µg/ml) in TZM-bl [25]: > 25 µg/mL; IC50 (µg/ml) in TZM-bl [26]: > 25 µg/mL; ID50/IC50 in TZM-bl [27]: > 25 µg/mL; ID50/IC50 in TZM-bl [28]: > 25 µg/mL; IC50 (µg/ml) in TZM-bl [29]: > 25 µg/mL; ID50/IC50 in TZM-bl [30]: > 25 µg/mL; IC50 (µg/ml) in TZM-bl [31]: > 25 µg/mL
CH01 (antibody) | > 25 | 0.09 | > 25 | > 25 | > 20 | 1 | 1 | > 25 | 5.7 | > 25 | > 25 | > 25 | 0.8 | > 25 | 0.1 | 4.1 | 8.8 | > 25 | > 25 | > 25 | ID50/IC50 in TZM-bl [21]: > 25 µg/mL; IC50 (µg/ml) in TZM-bl [22]: 3.8 µg/mL; IC50 (µg/ml) in TZM-bl [23]: > 25 µg/mL; IC50 (µg/ml) in TZM-bl [24]: > 25 µg/mL; IC50 (µg/ml) in TZM-bl [25]: 7.7 µg/mL; IC50 (µg/ml) in TZM-bl [26]: > 25 µg/mL; ID50/IC50 in TZM-bl [27]: > 25 µg/mL; ID50/IC50 in TZM-bl [28]: > 25 µg/mL; IC50 (µg/ml) in TZM-bl [29]: 0.1 µg/mL; ID50/IC50 in TZM-bl [30]: > 25 µg/mL; IC50 (µg/ml) in TZM-bl [31]: 0.22 µg/mL
DH511.2_K3 (antibody) | 1.5 | 1.6 | 0.77 | 1.2 | 0.02 | 1.7 | 0.6 | 0.8 | 2.9 | 1.06 | 0.85 | 0.85 | 0.95 | 0.77 | 1.2 | 3.4 | 2.1 | 0.56 | 0.75 | 0.75 | ID50/IC50 in TZM-bl [21]: 1.2 µg/mL; IC50 (µg/ml) in TZM-bl [22]: 3.1 µg/mL; IC50 (µg/ml) in TZM-bl [23]: 0.56 µg/mL; IC50 (µg/ml) in TZM-bl [24]: 0.87 µg/mL; IC50 (µg/ml) in TZM-bl [25]: 2.8 µg/mL; IC50 (µg/ml) in TZM-bl [26]: 1.5 µg/mL; ID50/IC50 in TZM-bl [27]: 0.87 µg/mL; ID50/IC50 in TZM-bl [28]: 0.8 µg/mL; IC50 (µg/ml) in TZM-bl [29]: 1.1 µg/mL; ID50/IC50 in TZM-bl [30]: 1.06 µg/mL; IC50 (µg/ml) in TZM-bl [31]: 2.5 µg/mL
